± gives the half width of the 95% confidence interval.
Key:
[1] = folding stability dG unfold from chymotrypsin proteolysis; higher = more stable
In short: (§1)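 Sequencing followed digestion of designed mini-proteins with trypsin and chymotrypsin, each at 11 concentrations in threefold dilutions together with a no-protease condition. The mini-proteins were under 80 residues, had no cysteine, sat in a PA-tagged cDNA display construct, and were kept only if AlphaFold2 dimer inter-PAE was above 15. From the counts, Bayesian fitting gave K50, and unfolding free energy was derived against a sequence-predicted unfolded-state K50 and a shared folded-state K50, per protease or combined.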

[2] = folding stability dG unfold from trypsin proteolysis; higher = more stable
In short: as §1

[3] = folding stability dG unfold (combined trypsin and chymotrypsin); higher = more stable
In short: as §1

Row | Sequence | folding stability dG unfold [1] [kcal/mol] | folding stability dG unfold [2] [kcal/mol] | folding stability dG unfold [3] [kcal/mol]
1 | SAGGSAGGSAGEPKIIPIKLPENAKVEEFENPDGYPIKIFENPDNGEIWIVWPDGKIWPISAGGSAGGSAGG [r11_601_TrROS] | 0.719 ± 0.056 | 1.19 ± 0.051 | 0.93 ± 0.067
2 | SAGGSAGGSAGEPVEIEIKIKVEVNGKTYEITAKLEVYKNEDGSYEVKLYAPPEAITEVESAGGSAGGSAGG [r11_816_TrROS_Hall] | 2.99 ± 0.09 | 2.47 ± 0.21 | 2.7 ± 0.24
3 | SAGGSAGGSAGETITVKIVRFKPGSPEVRKLAEKLGLSEEEVEPVEVFTFKSEEELKAALSAGGSAGGSAGG [r11_83_TrROS_Hall] | 0.471 ± 0.24 | -0.172 ± 0.12 | 0.374 ± 0.16
4 | SAGGSAGGSAGEVVVEEKEDPSGVLTRTETYPDSVVVTEYKIAPDGKTTEPKPTILPKSESAGGSAGGSAGG [r17_72_JUSTAS] | -0.583 ± 0.22 | -0.494 ± 0.1 | -0.337 ± 0.15
5 | SAGGSAGGSAGFEAFVEEIKKDGDYKVEAFVFDNESGIKTLVIVLESPEEDKYEIRTFNISAGGSAGGSAGG [r11_753_TrMRF] | 0.796 ± 0.24 | 0.769 ± 0.038 | 0.829 ± 0.14
6 | SAGGSAGGSAGFFIRIEPPNGEKVHFPMPPNQLPELAEEFPGLKIDDIDEGNGWIWVEVPSAGGSAGGSAGG [r17_22_TrROS] | -0.453 ± 0.47 | -0.0744 ± 0.23 | -0.264 ± 0.35
7 | SAGGSAGGSAGFNFDIELERDPNGRARVMIKIPLPNGKHYIVIYEFDPDSGKMETKIFPVSAGGSAGGSAGG [r11_107_TrROS] | 3.82 ± 0.12 | 3.07 ± 0.086 | 3.43 ± 0.19
8 | SAGGSAGGSAGGAPNAPKPVLVFAEVTVTSVEYDPETGELRIEVELPDGGEKLTFRLPLSAGGSAGGSAGGS [r10_427_TrMRF] | 2.44 ± 0.031 | 1.93 ± 0.031 | 2.23 ± 0.054
9 | SAGGSAGGSAGGAPPGAKFTVKVPSNDNVIPGSVTLGPDGGTVFHFDGPVPEGDYEIVLESAGGSAGGSAGG [r7_627_JUSTAS] | -0.362 ± 0.17 | -1.63 ± 0.33 | -0.643 ± 0.15
10 | SAGGSAGGSAGGAPTIRVELRHPNGERIELEFPADADVIFVPEDYEITRIEIVPADDPASAGGSAGGSAGGS [r10_571_TrMRF] | 1.837 ± 0.018 | 1.51 ± 0.062 | 1.69 ± 0.052
11 | SAGGSAGGSAGGAVFKTPDGTTLTLLPDGTVVVTEYSPDGVPLRVETRTMTAADIAAAASAGGSAGGSAGGS [r10_874_JUSTAS] | 1.5 ± 0.088 | -0.022 ± 0.12 | 1.01 ± 0.085
12 | SAGGSAGGSAGGAVTTNKDVPLPGPFSIGTVTVSPPDPATPVVTFNSYEGNGPVTLTVPVSAGGSAGGSAGG [r11_1013_JUSTAS] | 0.321 ± 0.11 | 1.24 ± 0.015 | 0.921 ± 0.04
13 | SAGGSAGGSAGGDENDYYMVEIPIWRRNENGGWEPIFPIPIMVPKGAPKDVAKDILNNLSAGGSAGGSAGGS [r10_470_TrROS] | 0.324 ± 0.12 | 0.361 ± 0.1 | 0.382 ± 0.085
14 | SAGGSAGGSAGGDGEDGKPKPEPKIKIKIEVESVRNPNGFLIVTYRIPALGIWITIIINSAGGSAGGSAGGS [r10_160_TrROS] | 4.91 ± 0.24 | 3.03 ± 0.15 | 4.6 ± 0.39
15 | SAGGSAGGSAGGDGIVVPVDEAVGLIKELGLKVVGVFEHPGGPPAVLFELPDGRLLLAESAGGSAGGSAGGS [r10_210_TrMRF] | 0.792 ± 0.042 | 0.381 ± 0.045 | 0.603 ± 0.047
16 | SAGGSAGGSAGGDITIDTEQMPNGWHTVKVRLPNGKPIAPVPMPPGMTPEEAVKRALDRLSAGGSAGGSAGG [r7_444_TrROS] | -0.407 ± 0.25 | 0.0871 ± 0.065 | 0.0336 ± 0.12
17 | SAGGSAGGSAGGDKNDLSPGATISTYTNPGSFTVTLPTGETVTLPKTVTTTVTFFDSTNSAGGSAGGSAGGS [r10_643_JUSTAS] | 0.104 ± 0.14 | 0.254 ± 0.072 | 0.227 ± 0.08
18 | SAGGSAGGSAGGDLLRDLPGLELRIETVTVTERYFDEDGELVEEREETVTRIELRRPGEESAGGSAGGSAGG [r7_614_TrROS_Hall] | 2.15 ± 0.1 | 0.383 ± 0.2 | 1.75 ± 0.2

Row | Sequence | folding stability dG unfold [1] [kcal/mol] | folding stability dG unfold [2] [kcal/mol] | folding stability dG unfold [3] [kcal/mol]
19 | SAGGSAGGSAGGDNLMIMIEIEPVKTETRMDPDGKMETRTEYRIKIEIIPPPNPDDPENNSAGGSAGGSAGG [r7_523_TrROS] | 2.63 ± 0.049 | 1.55 ± 0.11 | 2.28 ± 0.17
20 | SAGGSAGGSAGGDNRLPIPVKTPVVVVPADEAREEIRATLPPDAYRVEEERGDYVTISLGSAGGSAGGSAGG [r7_670_JUSTAS] | 1.05 ± 0.022 | 0.481 ± 0.044 | 0.847 ± 0.049
21 | SAGGSAGGSAGGDNWKIGIDIIPIRFTFEMTMKDGGKPRPMRMEFEVTIIVIKITPPGDSAGGSAGGSAGGS [r10_118_TrROS] | 5.1 ± 0.079 | 3.5 ± 0.1 | 4.89 ± 0.11
22 | SAGGSAGGSAGGDPDERIPIKIEMWHPNKPYEHEFPVGMDLSDIADPFASDGFMVRIEISAGGSAGGSAGGS [r10_540_TrROS] | 1.26 ± 0.07 | 0.795 ± 0.058 | 1.05 ± 0.14
23 | SAGGSAGGSAGGDPNWVTVTIMIKVPPGDKPIEIEIPNGIKVEYYPFPDDGYLIFKITVRSAGGSAGGSAGG [r7_796_TrROS] | 3.11 ± 0.16 | 2.78 ± 0.16 | 3.02 ± 0.23
24 | SAGGSAGGSAGGDTVEIELRAFFPETGLIITPTITIDKNGKIISINPRIEPLPPPLEGILSAGGSAGGSAGG [r7_135_TrMRF] | -0.253 ± 0.1 | 0.341 ± 0.069 | 0.0659 ± 0.23
25 | SAGGSAGGSAGGDWITFTNPGGYKVTVEVDENGWMRVEVYPNGKPQEVPMPLEELKKNAPSAGGSAGGSAGG [r7_178_TrROS] | 0.868 ± 0.17 | -0.451 ± 0.18 | 0.423 ± 0.19
26 | SAGGSAGGSAGGEAKIKLEVEETPGGLVIRAEVEVDGKLYEVELRIKGDEIVEVKIKPLDSAGGSAGGSAGG [r7_187_TrROS_Hall] | 2.62 ± 0.2 | 2.13 ± 0.097 | 2.5 ± 0.17
27 | SAGGSAGGSAGGEDPNLKSKTITKKVEKGKLDSSKNITDSSGNTSIITVENNTITITIVSSAGGSAGGSAGG [r7_97_JUSTAS] | 1.66 ± 0.049 | -0.215 ± 0.31 | 1.03 ± 0.2
28 | SAGGSAGGSAGGEEKTEEEKRKEERLKPAPPLVLELDVEVDGKLYRFRLVNGKLEIEELPSAGGSAGGSAGG [r7_156_TrROS_Hall] | 2.98 ± 0.038 | 1.71 ± 0.047 | 2.56 ± 0.11
29 | SAGGSAGGSAGGEIKPGETITNLKVKIRNKKTGKTITVTLKPGETAEDLAKKLGVEIEPSAGGSAGGSAGGS [r10_202_TrROS_Hall] | 0.881 ± 0.097 | 0.622 ± 0.12 | 0.87 ± 0.1
30 | SAGGSAGGSAGGEIVIPVDGKLVVIKLKNGKKITVPVEDLKELLKKLGIKNAKIEVVPAKSAGGSAGGSAGG [r7_235_TrROS_Hall] | 2.82 ± 0.049 | 1.8 ± 0.088 | 2.56 ± 0.17
31 | SAGGSAGGSAGGEKVVVPPPEVELRLERREDGYVRLYARNKDGEWEEVAVFKVSPEELELSAGGSAGGSAGG [r7_659_TrROS_Hall] | 3.77 ± 0.13 | 3.09 ± 0.19 | 3.37 ± 0.32
32 | SAGGSAGGSAGGELELEVEVDGVLVRARVELDPETDELKIELEVRPLPPPEVVFLPEDRSAGGSAGGSAGGS [r10_582_TrROS_Hall] | 0.504 ± 0.029 | 0.576 ± 0.072 | 0.489 ± 0.1
33 | SAGGSAGGSAGGEMRLRISWNHPNGQPQVIEFPVGDIKEFLKKLGIDNIPPDKLTNIEPYSAGGSAGGSAGG [r7_745_TrROS] | 1.37 ± 0.092 | 1.25 ± 0.039 | 1.36 ± 0.094
34 | SAGGSAGGSAGGENPVDFKARVELLSGVVELTYTNEDGEPTTTLEEVVALKIEIEPSNNSAGGSAGGSAGGS [r10_1212_TrMRF] | 1.81 ± 0.062 | 1.23 ± 0.046 | 1.65 ± 0.073
35 | SAGGSAGGSAGGEPEVEITIEVEERDGELVVRVTARFKDTDETITVEMTLEEVEALLKASAGGSAGGSAGGS [r10_1187_TrROS_Hall] | 2.17 ± 0.061 | 2.54 ± 0.061 | 2.37 ± 0.077
36 | SAGGSAGGSAGGERVLVMVFKFDPEDNDMKIKDVVTFPNPEEAREEAEKDGYMVMVIPLSAGGSAGGSAGGS [r10_657_TrROS] | 1.85 ± 0.12 | 0.995 ± 0.048 | 1.47 ± 0.2
